Measurements reported in CN110003338A (BEIJING MIANYI FANGZHOU MEDICINE TECH CO LTD, dated 2019).

T1: 人OX40 (expressed on cells: transfected 293T cells; HEK::OX40 100B5 cells) (human, UniProt P43489 29-277)
T1 construct: whole, on cells; also called hOX40
T1 sequence (looked up): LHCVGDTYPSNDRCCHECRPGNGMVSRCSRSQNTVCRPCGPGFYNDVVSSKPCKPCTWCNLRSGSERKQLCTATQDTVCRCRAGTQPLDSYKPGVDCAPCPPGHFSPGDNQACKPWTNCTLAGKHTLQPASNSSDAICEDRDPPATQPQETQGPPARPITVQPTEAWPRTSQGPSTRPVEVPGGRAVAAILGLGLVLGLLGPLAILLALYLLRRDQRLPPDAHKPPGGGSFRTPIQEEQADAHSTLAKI


Biological target: T1, 人OX40 (expressed on cells: transfected …)
Assay: Flow cytometry on 293T cells expressing human OX40, antibody 1 µg/mL final, APC anti-mouse IgG Fc

Row | binding result | Binder
1 | binds | 抗OX40单克隆抗体6A6 (antibody, V domains shown, Mouse hybridoma monoclonal antibody) VH: EVQLQQSGPELVKPGASVKISCKASGYSFTGYYMNWVKQSPEKSLEWIGEINPSTGGTTYNQKFKAKATLTVDKSSSTAYMQLKSLTSEDSAVYYCARSGLPYYDVDYWGQGTTLTVSS VL: DIQMTQSPSSLSASLGERVSLTCRASQEISGYLSWLHQKPDGTIKRLIYAASTLDSGVPKRFSGSRSGSDYSLTISSLESEDFADYYCLQYASYPLTFGAGTNLELK
2 | binds | 抗OX40单克隆抗体4F2 (antibody, V domains shown, Mouse hybridoma monoclonal antibody (Balb/c x SP2/0); Constant regions are mouse; it was detected with anti-mouse IgG Fc and mIgG1 served as isotype control) VH: DVQLQESGPGLVKPSQSLSLTCSVTGYSITSGYNWNWIRQFPGNKLEWMGYISYDGSNNYNPSLKNRISITRDTSKNQFFLKLNSVTTEDTATYYCARQGSSGHFYYAMDYWGQGTSVTVSS VL: DIVMTQAHKFMSTSVGDRVSITCKASQDVSSAVAWYQQKPGQSPKLLIYWASIRHTGVPDRFTGSGSGTDYTLTISSVQAEDLALYYCQQHYSTPWTFGGGTKLEIK
